Measurements taken from PMC5974088.

What was measured:
Assay in all cases: ITC; 200-400 μM 53BP1 Tudor domain (wt or mutant) injected into 200 μl of 22-44 μM TIRR or Nudt16 (wt or mutant); 25 °C; 20 mM Tris-HCl pH 7.5, 150 mM NaCl; single-site binding model
[1] = biological target: TIRR H106Y (not stated (human or mouse cDNA cloned)) (UniProt Q8VHN8)
[2] = biological target: TIRR L20A (not stated (human or mouse cDNA cloned)) (UniProt Q8VHN8)
[3] = biological target: TIRR H106Q (not stated (human or mouse cDNA cloned)) (UniProt Q8VHN8)
[4] = biological target: Nudt16 ^W105 (H. sapiens) (UniProt Q96DE0)
[5] = biological target: TIRR H106R (not stated (human or mouse cDNA cloned)) (UniProt Q8VHN8)
[6] = biological target: TIRR H106K (not stated (human or mouse cDNA cloned)) (UniProt Q8VHN8)
[7] = biological target: TIRR H106W (not stated (human or mouse cDNA cloned)) (UniProt Q8VHN8)
[8] = biological target: TIRR H106A (not stated (human or mouse cDNA cloned)) (UniProt Q8VHN8)
[9] = biological target: TIRR I12A (not stated (human or mouse cDNA cloned)) (UniProt Q8VHN8)
[10] = biological target: TIRR H106Δ (not stated (human or mouse cDNA cloned)) (UniProt Q8VHN8)
[11] = biological target: TIRR I12G (not stated (human or mouse cDNA cloned)) (UniProt Q8VHN8)
[12] = biological target: Nudt16 ^H105 with R5, L7, V100 substituted by TIRR residues K10, I12, L101 (H. sapiens) (UniProt Q96DE0)
[13] = biological target: Nudt16 ^H105 (H. sapiens) (UniProt Q96DE0)
[14] = biological target: TIRR K10E (not stated (human or mouse cDNA cloned)) (UniProt Q8VHN8)
[15] = biological target: TIRR P105A (not stated (human or mouse cDNA cloned)) (UniProt Q8VHN8)

Chain of 53BP1 tandem Tudor domain (1484-1603) (Q12888 other isoform, or with tags, fused parts or gaps): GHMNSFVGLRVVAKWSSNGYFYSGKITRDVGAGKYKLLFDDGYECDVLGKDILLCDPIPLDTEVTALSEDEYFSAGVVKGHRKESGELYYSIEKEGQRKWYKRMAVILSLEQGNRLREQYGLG

**Q.** What does the source list for “53BP1 tandem Tudor domain (1484-1603) (from UniProt Q12888 1484-1603) (domain or fragment)”?
**A.** Kd [1]: 1.4 µM; Kd [2]: 25.5 µM; Kd [3]: 5.1 µM; Kd [4]: 3.6 µM; Kd [5]: 1.9 µM; Kd [6]: 6.8 µM; Kd [7]: 0.5 µM; Kd [8]: 3.9 µM; Kd [9]: 4.9 µM; Kd [10]: 17.8 µM; Kd [11]: 38.3 µM; Kd [12]: 1 µM; Kd [13]: 7.1 µM; Kd [14]: 20.4 µM; Kd [15]: 4.3 µM
